A short description of the series: protein stability index of a GFP-peptide fusion (GPS, HEK-293T) (PSI 1-6); higher = more stable.
The mark [1] stands for this setting: treatment: DMSO, c terminus: a fixed tail appended.
The mark [2] stands for this setting: treatment: MLN4924 1 uM, 8 h, c terminus: a fixed tail appended.
[3] abbreviates: treatment: DMSO, c terminus: native.
Where [4] appears, read: treatment: MLN4924 1 uM, 8 h, c terminus: native.

± gives the standard deviation.
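Further: 24-mer peptide tiles fused after GFP, lentivirally expressed, FACS-sorted into six equal bins by GFP/DsRed ratio, decoded by Illumina sequencing, PSI is the read-weighted mean bin number.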

As for ILESSQTLLSVLKREAGNLTKATA [SSNA1], the protein stability index came to 2.69 ± 0.46 under setting [1] and 2.99 ± 0.29 under setting [2].

Consider ILHPELTVDSMIPAYATTRIRSQI [GDAP1], for which the protein stability index runs as follows: under setting [1], 2.52 ± 0.2; under setting [2], 2.55 ± 0.17.

Take ILREELQKQRLREILEQQQQERND [ZNF277]: the protein stability index worked out at 4.4 ± 0.51 under setting [1] and 4.32 ± 0.33 under setting [2].

In the case of ILTFLRAGKLRLLREMCALSFQEE [KCNG1], the protein stability index reads like this: under setting [1], 3.24 ± 0.69; under setting [2], 2.19 ± 0.28.

In the case of IMNEKCVVENAEKILGYLNTNVLS [SLC6A17], the protein stability index is 2.92 ± 0.35 under setting [1] and 2.47 ± 0.5 under setting [2].

Take INDEMQAKGIPQRAPPKRKRKRVK [PCMTD1]: the protein stability index under setting [1] was found to be 5.51 ± 0.23 and the protein stability index under setting [2] stood at 5.36 ± 0.24.

INKEELEGNSMRCGRKLAKDGEYC [GMCL1] registered a protein stability index under setting [1] of 4.04 ± 0.36 and a protein stability index under setting [2] of 4.15 ± 0.49.

Sequence INRWRFLLQCLEDLDANLRKLNSR [CRY1] yielded a protein stability index under setting [1] of 2.06 ± 0.16 and a protein stability index under setting [2] of 2.45 ± 0.15.

On to IPKPQSTGWFGGGFTSYLGFGDED [MIA2], for which the protein stability index under setting [1] was found to be 3.14 ± 0.16 and the protein stability index under setting [2] was determined as 3.53 ± 0.55.

As for IPYFITLGTELAERQGNGQQAMSL [KCNA3], the protein stability index by setting is: under setting [1], 3.03 ± 0.59; under setting [2], 3.01 ± 0.37.

As for IREDEVHRLGSPYGHCTAGGEGVE [SCNN1D], the protein stability index by setting is: under setting [1], 4.8 ± 0.26; under setting [2], 4.85 ± 0.11.

IRKERKRLKLMQQNPAGELEGFQA [ATE1]: the protein stability index runs as follows: under setting [1], 3.87 ± 0.65; under setting [2], 3.76 ± 0.32.

With ISAHKPLLISSCDWMAAMFGGPFV [RHOBTB2], the protein stability index is 2.51 ± 0.57 under setting [1] and 2.44 ± 0.2 under setting [2].

In the case of ISFGQLSDRFGRKKVYLTGFALDI [SLC22A15], the protein stability index by setting is: under setting [1], 2.97 ± 0.43; under setting [2], 2.73 ± 0.59.

For ISGREVFEFRPELVNDDDEEADDT [ZC3H15], the protein stability index runs as follows: under setting [1], 5.51 ± 0.26; under setting [2], 5.47 ± 0.16.

With ISLMYGGSKRKSSFFSSPPYFED [SLA], the protein stability index amounted to 2.22 ± 0.22 under setting [3] and 2.27 ± 0.27 under setting [4].

For the sequence ISVLAFSVCFIFTITIGMFPAVTV [SLC29A1], the protein stability index under setting [1] stood at 2.96 ± 0.13 and the protein stability index under setting [2] was determined as 2.92 ± 0.32.

ISVTAYQNPQITQLKIAANPFAKG [TBX6] registered a protein stability index under setting [1] of 2.33 ± 0.22 and a protein stability index under setting [2] of 2.36 ± 0.16.

Consider ISYLVLSMISMGLFSIAPLIYGSM [JAGN1], for which the protein stability index is, setting by setting: under setting [1], 2.91 ± 0.46; under setting [2], 3.19 ± 0.17.

ITCLTCQGTGYIPTEQVNELVALI [TMEM106C]: the protein stability index came out at 2.17 ± 0.3 under setting [1] and 2.2 ± 0.27 under setting [2].

Consider ITGLPLDNPSVLSGPMQAALQAAA [SMG5], for which the protein stability index runs as follows: under setting [1], 3.08 ± 0.2; under setting [2], 3.11 ± 0.082.

Regarding ITTDNLQCRERREHPNLVRDHVET [TEKT4], the protein stability index stood at 4.35 ± 0.085 under setting [1] and 4.44 ± 0.17 under setting [2].

On to IVDPTTGKRYCRGKVLGKGGFAKC [PLK2], for which the protein stability index is, setting by setting: under setting [1], 2.63 ± 0.38; under setting [2], 2.92 ± 0.16.

IVEVLGIPPAAMLDQAPKARKYFE [DYRK1B]: the protein stability index was 2.65 ± 0.42 under setting [1] and 2.93 ± 0.14 under setting [2].

The sequence IYDNAVQGLRRHEILQWVLQTDSQ [LRRC59] showed a protein stability index under setting [1] of 2.56 ± 0.2 and a protein stability index under setting [2] of 2.64 ± 0.35.

On to IYGGELGPMMKLKRHFVAQKYKKQ [ACSBG2], for which the protein stability index was 2.49 ± 0.2 under setting [1] and 2.85 ± 0.25 under setting [2].

Consider KAPAKKANSTTTAGRDHFLTCGV [BRD3], for which the protein stability index under setting [3] turned out to be 2.5 ± 0.11 and the protein stability index under setting [4] is 2.74 ± 0.26.

Consider KASNPDLKLWEIGKIIGGMWRDLT [SMARCE1], for which the protein stability index is, setting by setting: under setting [1], 3.42 ± 1.9; under setting [2], 2.55 ± 0.64.

Turning to KAVQYEEKNPCRTLCCFCCPCLK [STX11], the protein stability index under setting [3] was found to be 3.59 ± 0.36 and the protein stability index under setting [4] stood at 3.7 ± 0.084.

For KDAALATALGDKKSLEGDLEDLKD [LMNB1], the protein stability index is, setting by setting: under setting [1], 5.42 ± 0.36; under setting [2], 5.89 ± 0.14.

Take KDGMAFQEALDPGPFDQGSPFAQE [ELF3]: the protein stability index runs as follows: under setting [1], 4.65 ± 0.69; under setting [2], 4.94 ± 0.12.

On to KDGNTPLHVAARYGHELLINTLIT [ANKRD44], for which the protein stability index reads like this: under setting [1], 2.19 ± 0.15; under setting [2], 2.3 ± 0.46.

KDMATGKSKGYGFVSFFNKWDAEN [TIA1] showed a protein stability index under setting [1] of 2.44 ± 0.3 and a protein stability index under setting [2] of 2.94 ± 0.28.

Regarding KDRETSKVIYDFIEKTGGVEAVKN [WASL], the protein stability index under setting [1] was 3.28 ± 0.068 and the protein stability index under setting [2] stood at 3.37 ± 0.078.

For KDVSRCVAERKYTQEQARKEFQQV [SMOC2], the protein stability index came out at 4.49 ± 0.16 under setting [1] and 4.51 ± 0.38 under setting [2].

Consider KEKQSRDFQGRILSVDPEEEREEG [RHOBTB1], for which the protein stability index runs as follows: under setting [1], 5.25 ± 0.24; under setting [2], 5.46 ± 0.55.

On to KEMARKVIEHCSNFKEENMDTSR [ZER1], for which the protein stability index worked out at 3.77 ± 0.32 under setting [3] and 4.16 ± 0.61 under setting [4].

With KENAAAPSPVRAPAPSPAKEERKT [PALM], the protein stability index reads like this: under setting [1], 5.45 ± 0.24; under setting [2], 5.53 ± 0.23.

Regarding KERKLECLPPEPSPDDPESVKIIF [FAF2], the protein stability index under setting [1] worked out at 3.97 ± 0.22 and the protein stability index under setting [2] turned out to be 4.04 ± 0.16.

Take KETELPFPKQILDQNNVIENEETG [MIA2]: the protein stability index under setting [2] amounted to 5.09 ± 0.62.

The sequence KGKAGRVDLVDESGYVSGYKHAGT [TPPP] yielded a protein stability index under setting [1] of 4.32 ± 0.12 and a protein stability index under setting [2] of 4.57 ± 0.18.

Turning to KGKFSTDTKGKPTSRTQVYKPPAL [ZC2HC1A], the protein stability index by setting is: under setting [1], 3.77 ± 0.19; under setting [2], 3.8 ± 0.15.

Regarding KHFCPRAPVILVGCQLDLRYADLE [RHOBTB2], the protein stability index was found to be 2.3 ± 0.65 under setting [1] and 2.52 ± 0.59 under setting [2].

Consider KHLNASNPTEPATIIFTAAREGRE [TOR1AIP2], for which the protein stability index came to 4.13 ± 0.2 under setting [1] and 4.22 ± 0.27 under setting [2].

Turning to KHNHSKSTWLILHHKVYDLTKFLE [CYB5A], the protein stability index under setting [1] amounted to 2.6 ± 0.55 and the protein stability index under setting [2] came to 2.49 ± 0.41.

KILLTKSENARLVLQIDNAKLAAD [KRT36] gave a protein stability index under setting [1] of 2.99 ± 0.15 and a protein stability index under setting [2] of 3.08 ± 0.51.

Take KIWLVVPSLLELAWEKLLAAFPNL [KLHDC10]: the protein stability index amounted to 2.84 ± 0.16 under setting [1] and 2.73 ± 0.11 under setting [2].

Regarding KIYAYPSNITSETGFRTISSLEEI [TMEM192], the protein stability index is 2.59 ± 0.15 under setting [1] and 2.9 ± 0.3 under setting [2].

As for KKDRPLARRKSELPQDPHTKKALE [PPP2R5C], the protein stability index reads like this: under setting [1], 5.11 ± 0.2; under setting [2], 4.96 ± 0.12.

Take KKFRSSTSSSLGDKSEYLEMEEGV [KCNA4]: the protein stability index under setting [1] turned out to be 4.6 ± 0.37 and the protein stability index under setting [2] was determined as 4.91 ± 0.28.

For the sequence KKNHEEEMKEFSSQLAGQVNVEMD [KRT15], the protein stability index is 5.6 ± 0.12 under setting [1] and 5.59 ± 0.23 under setting [2].

For KLIRDFDEKQQEANETLAEMEEEL [VTI1B], the protein stability index reads like this: under setting [1], 4.89 ± 0.32; under setting [2], 5.3 ± 0.19.

The sequence KLLPHQPRIVEMKKGSNGYGFYLR [PDZK1] came in with a protein stability index under setting [1] of 2.37 ± 0.12 and a protein stability index under setting [2] of 2.47 ± 0.6.

The values above are taken from the supplement of paper PMC10567573.
